Two molecules from patent publication US10358467B2, “Therapeutic targets for cancer progression” (The Regents of the University of California, priority 2015, dated 2019) can be followed below.

The test system of one series is Rac1. The experiment in a line: Rac1 activity pulldown assay with GST-PBD in HeLa cells. It counts as cell-based. As to conditions: 10 μM, 6 h, DAPLE-depleted HeLa cells transfected with myc-DAPLE WT. On the procedure: Rac1 activity in HeLa cells lines was monitored using GST-tagged PAK1-binding domain (PBD; pGEX-PBD) as described previously (Benard & Bokoch, 2002). Briefly, Escherichia coli strain BL21 bacteria transformed with pGEX-PBD were grown at 37° C. and GST-PBD expression was induced at OD600 with 1 mM IPTG for 3 h at 37° C. with shaking. Bacterial lysates were prepared as described above in protein purification section, cleared of debris by centrifugation and subsequently aliquots of lysates were stored at −80° C. until use. Aliquots of bacterial lysates were thawed, cleared of precipitated proteins by centrifugation at 14,000×g for 20 min, and the cleared supernatant was subsequently incubated with glutathione beads overnight at 4° C. with constant tumbling to prepare purified bead-bound GST-PBD freshly for each assay.
To analyze the role of DAPLE in regulation of Rac1 activity HeLa cells were used. For assays done on cells at steady-state, cells were maintained overnight in a media containing 2% or 0.2% FBS prior to lysis. […]

The next series relates to Akt. The experiment in a line: Akt phosphorylation (pAkt S473) immunoblot in HeLa cells. It counts as cell-based. As to conditions: 10 μM, 6 h, DAPLE-depleted HeLa cells transfected with myc-DAPLE WT. Here is the method:
For immunoblotting, protein samples were separated by SDS-PAGE and transferred to PVDF membranes (Millipore). Membranes were blocked with PBS supplemented with 5% nonfat milk (or with 5% BSA when probing for phosphorylated proteins) before incubation with primary antibodies. Infrared imaging with two-color detection and band densitometry quantifications were performed using a Li-Cor Odyssey imaging system exactly as done previously (Garcia-Marcos et al, 2011a; Garcia-Marcos et al, 2010; Garcia-Marcos et al, 2012; Garcia-Marcos et al, 2011b; Ghosh et al, 2010). All Odyssey images were processed using Image J software (NIH) and assembled into figure panels using Photoshop and Illustrator software (Adobe).
(Immunoblotting shows a protein as a band on a membrane.)

Another series deals with T1, Gαo (Rattus norvegicus, UniProt P59215).
T1 construct: made in house; host or cells: E. coli BL21 (DE3)
The experiment in a line: GST pulldown of His-DAPLE-CT with GST-Gαo. It counts as binding.

In the next series the target is T2, Gαi1 (Rattus norvegicus, UniProt P10824).
T2 construct: made in house; host or cells: E. coli BL21 (DE3)
As to the kind of experiment: GST pulldown of His-DAPLE-CT with GST-Gαi1. It counts as binding.

Series [1] concerns the target T3, His-Gαi3 (Rattus norvegicus, UniProt P08753).
T3 construct: His; made in house; host or cells: E. coli BL21 (DE3)
As to the kind of experiment: Steady-state GTPase assay. Type of series: biochemical. As to conditions: in vitro assays. Here is the method: Under the experimental conditions of steady-state GTPase assays, GTP hydrolysis occurs as a two-step reaction, i.e., 1) GDP is released from the G protein and exchanged for GTP, and 2) the GTP loaded is hydrolyzed. Nucleotide exchange is the rate limiting step in this process because it is ˜50-100 times slower than GTP hydrolysis by Gαi subunits (Mukhopadhyay & Ross, 2002). Thus, the steady-state GTPase activity reflects the rate of nucleotide exchange, and was performed as described previously (Garcia-Marcos et al, 2010; Garcia-Marcos et al, 2012; Garcia-Marcos et al, 2011b). Briefly, His-Gαi3 (100 nM) was preincubated with different concentrations of His-DAPLE-CT (aa 1650-2028) for 15 min at 30° C. in assay buffer [20 mM Na-HEPES, pH 8, 100 mM NaCl, 1 mM EDTA, 2 mM MgCl2, 1 mM DTT, 0.05% (w:v) C12E10]. GTPase reactions were initiated at 30° C. by adding an equal volume of assay buffer containing 1 μM [γ-^32P]GTP (˜50 c.p.m/fmol). […] Samples were then centrifuged for 10 min at 10,000×g, and 500 μl of the resultant supernatant were scintillation counted to quantify released [^32P]Pi. For the time course experiments, data was expressed as raw c.p.m. For the dose-dependence curve experiments, the background [^32P]Pi detected at 15 min in the absence of G protein was subtracted from each reaction and data expressed as percentage of the Pi produced by His-Gαi3 in the absence of His-DAPLE-CT.

The next series addresses T4, GST-FZD7R-CT (Homo sapiens, UniProt O75084).
T4 construct: the GST-tagged cytoplasmic tail of FZD7R; made in house; host or cells: bacteria (E. coli BL21 (DE3)); plasmid a gift of R. Yao
The experiment in a line: GST-FZD7-CT pulldown of His-Gαi3. Type of series: binding. As to conditions: His-Gαi3 preloaded with GDP, in the presence of DAPLE-CT. Here is the method: GST-FZD7-CT and GST-PBD constructs were immobilized on glutathione-Sepharose beads directly from bacterial lysates by overnight incubation at 4° C. with constant tumbling. Next morning, GST-FZD7-CT immobilized on glutathione beads were washed and subsequently incubated with His-tagged DAPLE-CT or Gαi3 proteins at 4° C. with constant tumbling. Washes and immunoblotting were performed as previously.

Series [2] has as its target T3, His-Gαi3. The experiment in a line: GTPγS binding assay. Type of series: biochemical. As to conditions: 0-2 μM, 15 min. On the procedure:
GTPγS binding was measured using a filter binding method as described previously (Garcia-Marcos et al, 2010; Garcia-Marcos et al, 2011b). His-Gαi3 (100 nM) was preincubated with different concentrations of His-DAPLE-CT (aa 1650-2028) for 15 min at 30° C. in assay buffer [20 mM Na-HEPES, pH 8, 100 mM NaCl, 1 mM EDTA, 25 mM MgCl2, 1 mM DTT, 0.05% (w:v) C12E10]. Reactions were initiated at 30° C. by adding an equal volume of assay buffer containing 1 μM [^35S] GTPγS (˜50 c.p.m/fmol). Duplicate aliquots (25 μl) were removed at different time points, and binding of radioactive nucleotide was stopped by addition of 3 ml, ice-cold wash buffer (20 mM Tris-HCl, pH 8.0, 100 mM NaCl, 25 mM MgCl2). The quenched reactions were rapidly passed through BA-85 nitrocellulose filters (GE Healthcare) and washed with 4 ml wash buffer. Filters were dried and subjected to liquid scintillation counting. To determine the specific nucleotide binding, the background [^35S]GTPγS detected in the absence of G protein was subtracted from each reaction and data expressed as percentage of the [^35S] GTPγS bound by His-Gαi3 in the absence of His-DAPLE-CT.
(In general: GTPγS resists hydrolysis and so accumulates on activated G proteins.)

The target in another series is T5, Gαi3 (Rattus norvegicus, UniProt P08753).
T5 construct: made in house; host or cells: E. coli BL21 (DE3)
The experiment in a line: GST pulldown of His-DAPLE-CT with GST-Gαi3. It counts as binding. On the procedure:
Purified GST-Gαi3 or GST alone (5 μg) were immobilized on glutathione-Sepharose beads and incubated with binding buffer [50 mM Tris-HCl (pH 7.4), 100 mM NaCl, 0.4% (v:v) Nonidet P-40, 10 mM MgCl2, 5 mM EDTA, 30 μM GDP, 2 mM DTT, protease inhibitor mixture] for 90 min at room temperature as described before (Garcia-Marcos et al, 2011a; Ghosh et al, 2010; Ghosh et al, 2008; Lin et al, 2011). Lysates (˜250 μg) of Cos7 cells expressing appropriate myc-DAPLE constructs or purified His-DAPLE-CT (aa 1650-2028) protein (3 μg) were added to each tube, and binding reactions were carried out for 4 h at 4° C. with constant tumbling in binding buffer [50 mM Tris-HCl (pH 7.4), 100 mM NaCl, 0.4% (v:v) Nonidet P-40, 10 mM MgCl2, 5 mM EDTA, 30 μM GDP, 2 mM DTT]. Beads were washed (4×) with 1 mL of wash buffer [4.3 mM Na2HPO4, 1.4 mM KH2PO4 (pH 7.4), 137 mM NaCl, 2.7 mM KCl, 0.1% (v:v) Tween 20, 10 mM MgCl2, 5 mM EDTA, 30 μM GDP, 2 mM DTT] and boiled in Laemmli's sample buffer. In some experiments the ‘active’ conformation of the G protein was stabilized by replacing GDP in the binding and wash buffers with 30 μM GTPγS or a mixture of 30 μM GDP/30 μM AlCl3/10 mM NaF. Immunoblot quantification was performed by infrared imaging following the manufacturer's protocols using an Odyssey imaging system (Li-Cor Biosciences).

The target of a further series is T6, Gαi2 (Rattus norvegicus, UniProt P04897).
T6 construct: made in house; host or cells: E. coli BL21 (DE3)
As to the kind of experiment: GST pulldown of His-DAPLE-CT with GST-Gαi2. Type of series: binding. As to conditions: compared to Gαi1 and Gαi3.

Series [3] deals with T7, GST-Gαi3·Gβγ preformed complexes (Rattus norvegicus, UniProt P08753).
T7 construct: made in house; host or cells: E. coli BL21 (DE3) for GST-Gαi3; Gβγ endogenous from HEK293T lysate
The experiment in a line: Gβγ displacement assay. It counts as binding. As to conditions: 0.05-1 μM WT or 1 μM F1675A. Here is the method:
This assay was performed as described previously (Garcia-Marcos et al, 2009). Briefly, GST alone or GST-Gαi3 proteins immobilized on glutathione-agarose beads were incubated overnight at 4° C. with HEK293T cell lysates in binding buffer [50 mM Tris-HCl, pH 7.4, 100 mM NaCl, 0.4% (v:v) NP-40, 10 mM MgCl2, 5 mM EDTA, 2 mM DTT, protease inhibitor cocktail supplemented with 30 μM GDP]. Unbound Gβγ-subunits were washed twice with the same buffer and proteins bound to the glutathione-agarose beads divided into equal aliquots containing ˜5 μg (˜0.4 μM) GST-fusion proteins. Aliquots were incubated with increasing concentrations (0.05-1 μM) of purified His-DAPLE-CT (1650-2028) wild-type or 1 μM His-DAPLE-CT F1675A in binding buffer supplemented with GDP (˜200 μl) for 5 h at 4° C. Glutathione-agarose beads were washed and bound proteins eluted by boiling in Laemmli sample buffer and separated by SDS-PAGE.

T1 sequence (P59215 whole entry): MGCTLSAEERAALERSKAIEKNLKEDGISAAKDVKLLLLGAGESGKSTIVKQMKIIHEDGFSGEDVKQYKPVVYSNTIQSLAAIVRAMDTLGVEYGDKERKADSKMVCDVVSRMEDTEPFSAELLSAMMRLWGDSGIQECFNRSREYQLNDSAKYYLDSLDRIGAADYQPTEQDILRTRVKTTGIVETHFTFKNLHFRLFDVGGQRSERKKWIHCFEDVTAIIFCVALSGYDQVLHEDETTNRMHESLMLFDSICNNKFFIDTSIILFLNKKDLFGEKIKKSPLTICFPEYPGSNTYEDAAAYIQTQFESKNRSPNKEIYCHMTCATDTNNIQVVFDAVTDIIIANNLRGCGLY
T6 sequence (P04897 whole entry): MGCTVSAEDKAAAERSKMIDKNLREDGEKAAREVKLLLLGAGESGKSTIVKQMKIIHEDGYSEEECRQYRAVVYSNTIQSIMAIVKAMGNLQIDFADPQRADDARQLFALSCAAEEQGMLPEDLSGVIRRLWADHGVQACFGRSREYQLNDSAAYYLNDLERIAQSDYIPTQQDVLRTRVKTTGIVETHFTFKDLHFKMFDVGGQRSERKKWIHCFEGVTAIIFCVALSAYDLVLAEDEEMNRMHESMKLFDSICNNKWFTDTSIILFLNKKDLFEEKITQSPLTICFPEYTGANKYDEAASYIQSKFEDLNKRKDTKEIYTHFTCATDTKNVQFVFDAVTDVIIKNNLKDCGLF
T2 sequence (P10824 whole entry): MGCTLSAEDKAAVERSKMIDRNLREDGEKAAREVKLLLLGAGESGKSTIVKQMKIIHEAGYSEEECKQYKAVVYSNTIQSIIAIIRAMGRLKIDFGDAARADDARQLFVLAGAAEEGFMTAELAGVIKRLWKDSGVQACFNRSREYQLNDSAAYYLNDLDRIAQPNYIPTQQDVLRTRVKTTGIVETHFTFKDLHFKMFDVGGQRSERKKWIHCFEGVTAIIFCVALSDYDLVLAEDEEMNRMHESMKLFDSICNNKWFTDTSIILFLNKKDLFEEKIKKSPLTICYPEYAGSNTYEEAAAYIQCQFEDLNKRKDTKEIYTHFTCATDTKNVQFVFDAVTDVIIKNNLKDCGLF

Turning to `O=C1OC2(c3ccccc31)c1ccc(O)c(O)c1Oc1c2ccc(O)c1O` [Gallein], in the series on Rac1, the Rac1 activity entry is recorded as “effectively inhibited”. Besides, the Akt activity result in the series with Akt is “effectively inhibited”.

B1: His-DAPLE-CT: purified His-tagged DAPLE C-terminus (aa 1650-2028, containing the GBA motif) (protein, listed as Homo sapiens)
chain: GTAPPYVGVRPCSASPSSEMVTLEEFLEESNRSSPTHDTPSCRDDLLSDYFRKASDPPAIGGQPGPPAKKEGAKMPTNFVAPTVKMAAPTSEGRPLKPGQYVKPNFRLTEAEAPPSVAPRQAQPPQSLSLGRPRQAPVPPASHAPASRSASLSRAFSLASADLLRASGPEACKQESPQKLGAPEALGGRETGSHTLQSPAPPSSHSLARERTPLVGKAGSSCQGPGPRSRPLDTRRFSLAPPKEERLAPLHQSATAPAIATAGAGAAAAGSGSNSQLLHFSPAAAPAARTKPKAPPRSGEVATITPVRAGLSLSEGDGVPGQGCSEGLPAKSPGRSPDLAPHLGRALEDCSRGSVSKSSPASPEPGGDPQTVWYEYGCV
modifications: His tag
Turning to B1, the “binding to Gαo” value with Gαo is reported as “not with Gαo”. In the series with Gαi1, the “binding to Gαi1” value is given as “interacts”. The “GEF activity, activation of nucleotide exchange” value with His-Gαi3 [1] was 2.5-3 fold. In the series with GST-FZD7R-CT, the “increase of Gαi3 binding to GST-FZD7R-CT” value is recorded as approximately 5 fold. Moreover, in the series with His-Gαi3 [2], the “initial rate of nucleotide (GTPγS) binding by His-Gαi3” value is “increased”. Moreover, the “binding to Gαi3” value in the series with Gαi3 is “interacts”. Moreover, the “binding to Gαi2” value in the series with Gαi2 is given as “partially reduced”. Besides, in series [3], the “displacement of Gβγ from pre-assembled complex with GST-Gαi3” value was “displaced”.
